Laboratory results taken from patent US20150044666A1.
pKd: −log10 of the molar value.

Columns and labels:
[1] = target: Recombinant HIV-1 p24 (HIV-1) (UniProt P04591); experiment: forward two-site immuno-PCR; p24 0.1 pg/mL; reporter MAb-DNA 5 pM
[2] = target: Recombinant HIV-1 p24 (HIV-1) (UniProt P04591); experiment: forward two-site immuno-PCR; p24 0.1 pg/mL; reporter MAb-DNA 10 pM
[3] = target: Recombinant HIV-1 p24 (HIV-1) (UniProt P04591); experiment: forward two-site immuno-PCR; p24 0.1 pg/mL; reporter MAb-DNA 15 pM
[4] = target: Recombinant HIV-1 p24 (HIV-1) (UniProt P04591); experiment: forward two-site immuno-PCR; p24 0.1 pg/mL; reporter MAb-DNA 20 pM
[5] = target: Recombinant HIV-1 p24 (HIV-1) (UniProt P04591); experiment: forward two-site immuno-PCR; p24 0.1 pg/mL; reporter MAb-DNA 50 pM
[6] = target: Recombinant HIV-1 p24 (HIV-1) (UniProt P04591); experiment: forward two-site immuno-PCR; p24 0.1 pg/mL; reporter MAb-DNA 2.5 pM
[7] = target: Recombinant HIV-1 p24 (HIV-1) (UniProt P04591); experiment: forward two-site immuno-PCR, 10 pM reporter MAb-DNA, capture MAb 739P on particles; p24 at 1 pg/mL
[8] = target: Recombinant HIV-1 p24 (HIV-1) (UniProt P04591); experiment: forward two-site immuno-PCR, 10 pM reporter MAb-DNA, capture MAb 739P on particles; p24 at 10 pg/mL
[9] = target: Recombinant HIV-1 p24 (HIV-1) (UniProt P04591); experiment: forward two-site immuno-PCR, 10 pM reporter MAb-DNA, capture MAb 739P on particles; p24 at 0.1 pg/mL
[10] = target: Recombinant HIV-1 p24 (HIV-1) (UniProt P04591); experiment: forward two-site immuno-PCR, 10 pM reporter MAb-DNA, capture MAb 739P on particles; p24 at 0.01 pg/mL
[11] = target: Recombinant HIV-1 p24 (HIV-1) (UniProt P04591); experiment: method not stated; rate and equilibrium constants listed for commercially available anti-HIV p24 antibodies

Substance “NIH AIDS Research & Reference Reagent Program HIV-1 183-H12-5C (antibody)” has an Average ΔThreshold Cycle (ΔCp) over blank [1] of 2.6 cycles, an Average ΔThreshold Cycle (ΔCp) over blank [2] of 2.2 cycles and an Average ΔThreshold Cycle (ΔCp) over blank [3] of 2 cycles. The Average ΔThreshold Cycle (ΔCp) over blank [4] was 1.5 cycles, the Average ΔThreshold Cycle (ΔCp) over blank [5] was 0.9 cycles and the Average ΔThreshold Cycle (ΔCp) over blank [6] was 0.3 cycles. It also gave a Threshold Cycle (Ct) [7] of 20.6 cycles, a Threshold Cycle (Ct) [8] of 17.7 cycles and a Threshold Cycle (Ct) [9] of 23.8 cycles. For the same substance, the Threshold Cycle (Ct) [10] was 26.6 cycles, the pKd [11] was 8.41 and the koff [11] was 5.9e-05 s⁻¹. It also gave a kon [11] of 15000 M⁻¹ s⁻¹.
